Measured values taken from publication PMC10073093, “TGFBI remodels adipose metabolism by regulating the Notch-1 signaling pathway” (Experimental & Molecular Medicine, 2023).

T1: Recombinant TGFBI (transforming growth factor-beta-induced protein) (UniProt Q15582 24-683)
T1 construct: Transforming growth factor-beta-induced protein (TGFBI, βig-H3); cDNA inserted into the EcoRV and EcoRI sites of pET-29b; also called βig-H3; keratoepithelin; source: E. coli, IPTG-induced, purified (Ni-NTA column, dialyzed)
T1 sequence (looked up): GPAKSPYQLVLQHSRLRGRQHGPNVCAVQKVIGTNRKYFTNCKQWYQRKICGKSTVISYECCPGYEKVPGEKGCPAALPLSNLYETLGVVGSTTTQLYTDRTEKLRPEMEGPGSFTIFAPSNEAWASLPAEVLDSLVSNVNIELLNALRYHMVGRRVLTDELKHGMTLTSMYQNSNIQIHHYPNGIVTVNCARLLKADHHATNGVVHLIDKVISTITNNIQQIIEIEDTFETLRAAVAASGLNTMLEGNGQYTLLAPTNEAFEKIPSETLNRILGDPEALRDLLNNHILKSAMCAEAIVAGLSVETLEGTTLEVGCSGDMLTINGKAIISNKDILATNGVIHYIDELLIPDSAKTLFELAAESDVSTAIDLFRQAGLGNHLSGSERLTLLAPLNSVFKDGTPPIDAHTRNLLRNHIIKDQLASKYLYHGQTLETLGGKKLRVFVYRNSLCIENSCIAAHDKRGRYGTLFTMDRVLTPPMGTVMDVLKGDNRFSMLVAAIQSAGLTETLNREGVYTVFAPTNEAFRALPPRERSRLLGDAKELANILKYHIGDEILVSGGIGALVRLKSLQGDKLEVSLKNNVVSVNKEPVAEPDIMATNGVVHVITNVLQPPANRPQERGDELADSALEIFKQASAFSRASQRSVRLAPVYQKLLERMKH

T2: Recombinant Notch-1 protein (UniProt P46531 19-2555)
T2 chain: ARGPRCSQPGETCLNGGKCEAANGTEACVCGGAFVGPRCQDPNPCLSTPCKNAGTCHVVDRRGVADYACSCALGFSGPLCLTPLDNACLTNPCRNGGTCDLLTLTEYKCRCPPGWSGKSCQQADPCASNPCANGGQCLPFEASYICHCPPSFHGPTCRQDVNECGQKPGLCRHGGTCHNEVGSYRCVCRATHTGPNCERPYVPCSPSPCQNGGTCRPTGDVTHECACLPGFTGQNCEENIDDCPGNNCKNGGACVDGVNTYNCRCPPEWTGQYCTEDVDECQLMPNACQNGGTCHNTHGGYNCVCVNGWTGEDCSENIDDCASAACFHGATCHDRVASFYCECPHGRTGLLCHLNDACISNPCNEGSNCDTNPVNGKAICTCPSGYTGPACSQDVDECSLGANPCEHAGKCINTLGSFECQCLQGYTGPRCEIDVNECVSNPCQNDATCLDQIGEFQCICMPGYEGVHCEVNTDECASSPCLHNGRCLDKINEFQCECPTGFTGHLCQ

B1: Recombinant Notch-1 protein (receptor)
chain: T2 chain
modifications: Species, supplier and limits not stated. Human assumed (mouse Q01705 is possible). Limits follow the usual commercial recombinant Notch-1 ectodomain fragment (N-terminal EGF repeats including …)
B2: Recombinant TGFBI (transforming growth factor-beta-induced protein) (natural protein)
chain: T1 sequence (looked up)
modifications: Species, supplier and limits not stated. Human assumed (mouse Q01705 is possible). Limits follow the usual commercial recombinant Notch-1 ectodomain fragment (N-terminal EGF repeats including ligand-binding EGF 11-12), recalled rather than printed; any Fc carrier omitted.

Key:
[1] = target: T1, Recombinant TGFBI (transforming growth …); test: ELISA; recombinant Notch-1 (2 g/ml as printed, in PBS) coated on 96-well polystyrene plates at RT overnight; blocked with 1% BSA in PBS; Jagged-1 or TGFBI added at 0 to 2000 ng/ml; biotinylated antibodies, streptavidin-HRP, OD 450 nm; Kd (nM) = ED50 (ng/mL)/molecular weight of binding protein; settings: both partners purified
[2] = target: T2, Recombinant Notch-1 protein; test: ELISA

Binder	Kd [1]	EC50 [2]
B1	3.18 nM	
B2		0.452 µg/mL
